This passage reports self-cleavage results from the RNAGym collection of RNA variant scans (doi:10.7554/elife.80360).

B1: HDV Ribozyme (parent)
chain: GGCCGGCAUGGUCCCAGCCUCCUCGCUGGCGCCGGCUGGGCAACAUUCCGAGGGGACCGUCCCCUCGGUAAUGGCGAAUGGGACCCA

In this data set the parent is B1. The data set is described as follows: self-cleavage, relative activity (ratio to wild type); higher = more cleavage; co-transcriptional.
For the variant GGUCGGCAUGGUCCCAGCCUCCUCGCUGGCCCCGGCUGGGCAACAUUCCGAGGGGACCGUCCCCUCGGUAAUGGCGAAUGGGACCCA, the self-cleavage turned out to be 0.168.
For GGUCGGCAUGGUCCCAGCCUCCUCGCUGGCGCCGGCUGGGCAACAUUCCGAGUGGACCGUCCCCUCGGUAAUGGCGAAUGGGACCCA, the self-cleavage is 0.779.
Take GGUCGGCAUGGUCCCAGCCUCCUCGCUGGCGCCGGCUGGGCAACAUUCCGAGCGGACCGUCCCCUCGGUAAUGGCGAAUGGGACCCA: the self-cleavage is 0.688.
With GGUCGGCAUGGUCCCAGCCGCCUCGCUGGCGCCGGCUGGGCAACAUUCCGAGGGGACCGUCCCCUCGGUAAUGGCGAAUGGGACCCA, the self-cleavage worked out at 0.125.
The figure for GGUCGGCAUGGUCCCAGCCUCCUCGCUGGCGCCGGCUGGGCAACAUUCCGAGGGGACCGUCCCCUCGGUAAUGCCGAAUGGGACCCA is 0.0712; for GGUCGGCAUGGUCCCAGCCUCCUCGCUGGCGCCGGCUGGGCAACAUUCCGAGGGGACCGUCCCCUCGGUAAUGUCGAAUGGGACCCA it is 0.241; for GGCAGGCAUGGUCCCAGCCUCCUCGCUGGUGCCGGCUGGGCAACAUUCCGAGGGGACCGUCCCCUCGGUAAUGGCGAAUGGGACCCA it is 0.116.
With GGCAGGCAUGGUCCCAGCCUCCUCGCUGGGGCCGGCUGGGCAACAUUCCGAGGGGACCGUCCCCUCGGUAAUGGCGAAUGGGACCCA, the self-cleavage was found to be 0.
As for GGCAGGCAUGGUCCCAGCGUCCUCGCUGGCGCCGGCUGGGCAACAUUCCGAGGGGACCGUCCCCUCGGUAAUGGCGAAUGGGACCCA, the self-cleavage amounted to 0.0339.
Regarding GGUCGGCAUGGUCCCAGCCUCCUCGCUGGCGCCGGCUGGGCAACAUGCCGAGGGGACCGUCCCCUCGGUAAUGGCGAAUGGGACCCA, the self-cleavage came out at 0.594.
The figure for GGUCGGCAUGGUCCCAGCCUCCUCGCUGGCGCCGGCUGGGCAACAUUCCGACGGGACCGUCCCCUCGGUAAUGGCGAAUGGGACCCA is 0.546; for GGCAGGCAUGGUCCCAGCCUCCUCGCUGGCGCCGGCUGGGCAACAUUCCGAGGGGACCGUCUCCUCGGUAAUGGCGAAUGGGACCCA it is 0.248; for GGCAGGCAUGGUCCCAGCCUCCUCGCUGGCGCCGGCUGGGCAACAUUCCGAGGGGACCGUCACCUCGGUAAUGGCGAAUGGGACCCA it is 0.177.
As for GGCAGGCAUGGUCCCAGCCUCCUCGCUGGCGCCGGCUGGGCAACAUUCCGAGGGGACCGUCGCCUCGGUAAUGGCGAAUGGGACCCA, the figure is 0; as for GGUCGGCAUGGUCCCAGCCUCCUCGCUGGCGCCGACUGGGCAACAUUCCGAGGGGACCGUCCCCUCGGUAAUGGCGAAUGGGACCCA, 0.694.
For the variant GGUCGGCAUGGUCCCAGCCUCCUCGCUGGCGCCGUCUGGGCAACAUUCCGAGGGGACCGUCCCCUCGGUAAUGGCGAAUGGGACCCA, the self-cleavage was 0.649.
As for GGCAGGCAUGGUCCCAGCCUCCUCGCUGGCGCCGGCUGGGCAACAUUCCGAGGGGACCGUCCCCUCGGUAAUGGCGAAUGGGACCCA, the figure is 0.315; as for GGCAGGCAUGGUCCCAGCCUCAUCGCUGGCGCCGGCUGGGCAACAUUCCGAGGGGACCGUCCCCUCGGUAAUGGCGAAUGGGACCCA, 0.0332; as for GGUCGGCAUGGUCCCAGCCUCCUCGCUGGCGCCGGCUGGGCAACAUUCCGAGGGGACCGUCCCCUCGGUAAUGGCAAAUGGGACCCA, 0.908.
The figure for GGCAGGCAUGGUCCCAGCCUCCUCGCUGGCGCCGGCUGGGCAACAUUCCGAGGGGACCGUGCCCUCGGUAAUGGCGAAUGGGACCCA is 0.193; for GGCAGGCAUGGUCCCAGCCUCCUCGCUGGCGCCGGCUGGGCAACAUUCCGAGGGGACCGUACCCUCGGUAAUGGCGAAUGGGACCCA it is 0.219; for GGCAGGCAUGGUCCCAGCCUCCUCGCUGGCGCCGGCUGGGCAACAUUCCGAGGGGACCGUUCCCUCGGUAAUGGCGAAUGGGACCCA it is 0.267.
As to GGUCGGCAUGGUCCCAGCCUCCUCGCUGGCGCCGGCUGGGCAACAUUCCGAGGGGACCGUCCCCGCGGUAAUGGCGAAUGGGACCCA, the self-cleavage came to 0.682.
As to GGUCGGCAUGGUCCCAGCCUCCUCGCUGGCGCCGGCUGAGCAACAUUCCGAGGGGACCGUCCCCUCGGUAAUGGCGAAUGGGACCCA, the self-cleavage came out at 0.21.
As for GGUCGGCAUGGUCCCAGCCUCCUCGCUGGCGCCGGCUGCGCAACAUUCCGAGGGGACCGUCCCCUCGGUAAUGGCGAAUGGGACCCA, the self-cleavage was 0.0804.
The figure for GGCAGGCAUGGUCUCAGCCUCCUCGCUGGCGCCGGCUGGGCAACAUUCCGAGGGGACCGUCCCCUCGGUAAUGGCGAAUGGGACCCA is 0.554.
As for GGCAGGCAUGGUCACAGCCUCCUCGCUGGCGCCGGCUGGGCAACAUUCCGAGGGGACCGUCCCCUCGGUAAUGGCGAAUGGGACCCA, the figure is 0.119; as for GGCAGGCAUGGUCCCAGCCUCCUUGCUGGCGCCGGCUGGGCAACAUUCCGAGGGGACCGUCCCCUCGGUAAUGGCGAAUGGGACCCA, 0.
The figure for GGCAGGCCUGGUCCCAGCCUCCUCGCUGGCGCCGGCUGGGCAACAUUCCGAGGGGACCGUCCCCUCGGUAAUGGCGAAUGGGACCCA is 0; for GGCAGGCUUGGUCCCAGCCUCCUCGCUGGCGCCGGCUGGGCAACAUUCCGAGGGGACCGUCCCCUCGGUAAUGGCGAAUGGGACCCA it is 0.0723; for GGUCGGCAUGGUCCCAGCCUCCUCGCUGGCGCCGGCUGGGCAACAUUCCGAGGGGACCGUCCCCUCGGUAACGGCGAAUGGGACCCA it is 0.471.
In the case of GGUCGGCAUGGUCCCAGCCUCCUCGCUGGCGCCGGCUGGGCAACAUUCCGAGGGGACCGUCCCCUCGGUAAGGGCGAAUGGGACCCA, the self-cleavage was found to be 0.453.
